Test results: US20090202980

T1: human IAPP amyloid core fragment (ΔhIAPP)
T1 chain: SNNFGAILSS

T2: fibrin peptide 85 (FP13), human fibrin α-chain fragment α148-160
T2 chain: KRLEVDIDIKIRS

T3: mouse non-amyloidogenic IAPP(20-29) core (ΔmIAPP)
T3 chain: SNNLGPVLPP

T4: human islet amyloid polypeptide, full length (fl-hIAPP)
T4 chain: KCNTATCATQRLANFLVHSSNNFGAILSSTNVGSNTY

T5: recombinant human β2-glycoprotein I (expressed in insect cells), P02749
T5 chain: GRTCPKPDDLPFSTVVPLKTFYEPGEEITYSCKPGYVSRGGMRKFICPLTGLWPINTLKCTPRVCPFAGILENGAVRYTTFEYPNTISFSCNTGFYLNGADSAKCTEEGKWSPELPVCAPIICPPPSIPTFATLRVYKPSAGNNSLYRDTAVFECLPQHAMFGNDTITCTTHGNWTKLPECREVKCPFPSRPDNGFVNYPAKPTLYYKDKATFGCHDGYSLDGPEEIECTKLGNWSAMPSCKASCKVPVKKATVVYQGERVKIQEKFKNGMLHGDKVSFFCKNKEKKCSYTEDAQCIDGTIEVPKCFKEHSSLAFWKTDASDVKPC

T6: fibrin peptide 87 (FP10), non-amyloid fragment of human fibrin α-chain(148-157)
T6 chain: KRLEVDIDIK

T7: β2-glycoprotein I purified from fresh human plasma (in solution), P02749
T7 chain: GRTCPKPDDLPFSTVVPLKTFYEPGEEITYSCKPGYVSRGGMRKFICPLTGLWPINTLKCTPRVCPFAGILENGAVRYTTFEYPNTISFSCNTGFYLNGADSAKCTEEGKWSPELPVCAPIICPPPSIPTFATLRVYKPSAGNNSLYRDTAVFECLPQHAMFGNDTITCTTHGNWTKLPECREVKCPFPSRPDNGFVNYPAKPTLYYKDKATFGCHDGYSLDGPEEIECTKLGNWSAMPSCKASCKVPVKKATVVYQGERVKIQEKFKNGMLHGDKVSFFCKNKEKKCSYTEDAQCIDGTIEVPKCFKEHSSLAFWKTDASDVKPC

T8: fibrin peptide 86 (FP12)
T8 chain: KRLEVDIDIKIR

T9: amyloid fragment of transthyretin (TTR11)
T9 chain: YTIAALLSPYS

T10: laminin α1-chain(2097-2108) amyloid core peptide (LAM12)
T10 chain: AASIKVAVSADR


Legend:
[1] = biological target: T1, human IAPP amyloid core fragment …
[2] = biological target: T2, fibrin peptide 85 (FP13), human fibrin …
[3] = biological target: T3, mouse non-amyloidogenic IAPP(20-29) …
[4] = biological target: T4, human islet amyloid polypeptide, full …
[5] = biological target: T5, recombinant human β2-glycoprotein I …
[6] = biological target: endostatin (precipitated, cross-β structure-containing)
[7] = biological target: T6, fibrin peptide 87 (FP10), non-amyloid …
[8] = biological target: human amyloid-β peptide Aβ(1-40)
[9] = biological target: T7, β2-glycoprotein I purified from fresh …
fibrin peptide 86 (FP12) = biological target: T8, fibrin peptide 86 (FP12)
[10] = biological target: T9, amyloid fragment of transthyretin …
[11] = biological target: T10, laminin α1-chain(2097-2108) amyloid …

Protein	tPA-mediated plasminogen activation [1]	tPA-mediated plasmin formation (plasminogen activation assay) [2]	tPA-mediated plasminogen activation [3]	tPA-mediated plasminogen activation [4]	tPA-mediated conversion of plasminogen to plasmin (S-2251 conversion) [5]	tPA-mediated plasmin formation (plasminogen activation assay) [6]	tPA-mediated plasmin formation (plasminogen activation assay) [7]	activation of plasminogen by tPA (S-2251 conversion) [8]	tPA-mediated conversion of plasminogen to plasmin (S-2251 conversion) [9]	tPA-mediated plasmin formation (plasminogen activation assay) (fibrin peptide 86 (FP12))	factor XII activation (Chromozym PK conversion via kallikrein) [2]	factor XII activation (Chromozym PK conversion via kallikrein) [3]	factor XII activation (Chromozym PK conversion via kallikrein) [10]	auto-activation of factor XII (S-2222 conversion) (FP13 K157G)	factor XII activation (Chromozym PK conversion via kallikrein) [7]	factor XII activation (Chromozym PK conversion via kallikrein) [11]	auto-activation of factor XII (S-2222 conversion) (Aβ(1-40) E22Q)	factor XII activation (Chromozym PK conversion via kallikrein) [8]
recombinant tissue-type plasminogen activator (tPA) (protein) SYQVICRDEKTQMIYQQHQSWLRPVLRSNRVEYCWCNSGRAQCHSVPVKSCSEPRCFNGGTCQQALYFSDFVCQCPEGFAGKCCEIDTRATCYEDQGISYRGTWSTAESGAECTNWNSSALAQKPYSGRRPDAIRLGLGNHNYCRNPDRDSKPWCYVFKAGKYSSEFCSTPACSEGNSDCYFGNGSAYRGTHSLTESGASCLPWNSMILIGKVYTAQNPSAQALGLGKHNYCRNPDGDAKPWCHVLKNRRLTWEYCDVPSCSTCGLRQYSQPQFRIKGGLFADIASHPWQAAIFAKHRRSPGERFLCGGILISSCWILSAAHCFQERFPPHHLTVILGRTYRVVPGEEEQKFEVEKYIVHKEFDDDTYDNDIALLQLKSDSSRCAQESSVVRTVCLPPADLQLPDWTECELSGYGKHEALSPFYSERLKEAHVRLYPSSRCTSQHLLNRTVTDNMLCAGDTRSGGPQANLHDACQGDSGGPLVCLNDGRMTLVGIISWGLGCGQKDVPGVYTKVTNYLDWIRDNMRP	Both full-length (fl-hIAPP) and truncated amyloid core (Δ-hIAPP), but not mouse IAPP (Δ-mIAPP), stimulate tPA-mediated plasminogen activation	peptides 85 and 86, both containing a cross-β structure, do stimulate the formation of plasmin by tPA	but not mouse IAPP (Δ-mIAPP)	Both full-length (fl-hIAPP) and truncated amyloid core (Δ-hIAPP), but not mouse IAPP (Δ-mIAPP), stimulate tPA-mediated plasminogen activation	Recombinant β2gpi and not β2gpi purified from fresh plasma, stimulates effectively the tPA-mediated conversion of plasminogen to plasmin	stimulating activity of cross-β structure-containing endostatin on tPA-mediated plasmin formation	peptide 87, which lacks a cross-β structure, does not	Aβ potently stimulates the activation of plasminogen by tPA	Recombinant β2gpi and not β2gpi purified from fresh plasma, stimulates effectively the tPA-mediated conversion of plasminogen to plasmin	peptides 85 and 86, both containing a cross-β structure, do stimulate the formation of plasmin by tPA	–	–	–	–	–	–	–	–
human factor XII (Hageman factor) (protein) IPPWEAPKEHKYKAEEHTVVLTVTGEPCHFPFQYHRQLYHKCTHKGRPGPQPWCATTPNFDQDQRWGYCLEPKKVKDHCSKHSPCQKGGTCVNMPSGPHCLCPQHLTGNHCQKEKCFEPQLLRFFHKNEIWYRTEQAAVARCQCKGPDAHCQRLASQACRTNPCLHGGRCLEVEGHRLCHCPVGYTGAFCDVDTKASCYDGRGLSYRGLARTTLSGAPCQPWASEATYRNVTAEQARNWGLGGHAFCRNPDNDIRPWCFVLNRDRLSWEYCDLAQCQTPTQAAPPTPVSPRLHVPLMPAQPAPPKPQPTTRTPPQSQTPGALPAKREQPPSLTRNGPLSCGQRLRKSLSSMTRVVGGLVALRGAHPYIAALYWGHSFCAGSLIAPCWVLTAAHCLQDRPAPEDLTVVLGQERRNHSCEPCQTLAVRSYRLHEAFSPVSYQHDLALLRLQEDADGSCALLSPYVQPVCLPSGAARPSETTLCQVAGWGHQFEGAEEYASFLQEAQVPFLSLERCSAPDVHGSSILPGMLCAGFLEGGTDACQGDSGGPLVCEDQAAERRLTLQGIISWGSGCGDRNKPGVYTDVAYYLAWIREHTVS	–	–	–	–	–	–	–	–	–	–	amyloid-like peptide aggregates of FP13 and Aβ stimulate the activation of factor XII	non-amyloid controls FP10 and mIAPP do not activate factor XII	cross-β structure-rich peptides LAM12 and TTR11 stimulate factor XII activation, to a similar extent as kaolin	FP13 K157G and Hb-AGE have a potency to induce auto-activation that is similar to the established surface activator DXS500k	non-amyloid controls FP10 and mIAPP do not activate factor XII	cross-β structure-rich peptides LAM12 and TTR11 stimulate factor XII activation, to a similar extent as kaolin	the potency of the Aβ(1-40) E22Q is somewhat lower	amyloid-like peptide aggregates of FP13 and Aβ stimulate the activation of factor XII
